Assay results reported in article doi:10.1101/2023.09.17.558134 (bioRxiv, 2023).

Experiments:
[1] = target: RNA polymerase β subunit (in the purified holoenzyme) (E. coli, UniProt P0A8V2 1-1342); test: cryo-EM structure
σ70 (purified) = σ70 (purified) (E. coli, UniProt P00579 1-613); test: cryo-EM structure
Sequence of σ70 (purified) (P00579 whole entry): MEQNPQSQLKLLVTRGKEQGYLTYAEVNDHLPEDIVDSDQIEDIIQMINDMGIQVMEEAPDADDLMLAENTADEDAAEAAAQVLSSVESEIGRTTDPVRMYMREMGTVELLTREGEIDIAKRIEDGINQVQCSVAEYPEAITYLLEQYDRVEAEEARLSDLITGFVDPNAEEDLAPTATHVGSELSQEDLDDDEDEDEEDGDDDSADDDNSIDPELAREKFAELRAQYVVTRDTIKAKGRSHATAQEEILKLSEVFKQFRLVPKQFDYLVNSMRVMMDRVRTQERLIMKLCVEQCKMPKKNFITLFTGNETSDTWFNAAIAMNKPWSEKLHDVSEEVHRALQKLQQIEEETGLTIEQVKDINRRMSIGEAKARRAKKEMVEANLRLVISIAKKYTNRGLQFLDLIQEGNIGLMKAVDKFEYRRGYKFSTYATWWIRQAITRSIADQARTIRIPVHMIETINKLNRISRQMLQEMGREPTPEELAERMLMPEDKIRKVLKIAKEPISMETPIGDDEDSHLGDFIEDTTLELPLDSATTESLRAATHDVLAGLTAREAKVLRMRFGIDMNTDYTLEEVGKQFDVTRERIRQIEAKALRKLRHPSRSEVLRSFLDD

Sequence of RNA polymerase β subunit (in the purified holoenzyme) (P0A8V2 whole entry): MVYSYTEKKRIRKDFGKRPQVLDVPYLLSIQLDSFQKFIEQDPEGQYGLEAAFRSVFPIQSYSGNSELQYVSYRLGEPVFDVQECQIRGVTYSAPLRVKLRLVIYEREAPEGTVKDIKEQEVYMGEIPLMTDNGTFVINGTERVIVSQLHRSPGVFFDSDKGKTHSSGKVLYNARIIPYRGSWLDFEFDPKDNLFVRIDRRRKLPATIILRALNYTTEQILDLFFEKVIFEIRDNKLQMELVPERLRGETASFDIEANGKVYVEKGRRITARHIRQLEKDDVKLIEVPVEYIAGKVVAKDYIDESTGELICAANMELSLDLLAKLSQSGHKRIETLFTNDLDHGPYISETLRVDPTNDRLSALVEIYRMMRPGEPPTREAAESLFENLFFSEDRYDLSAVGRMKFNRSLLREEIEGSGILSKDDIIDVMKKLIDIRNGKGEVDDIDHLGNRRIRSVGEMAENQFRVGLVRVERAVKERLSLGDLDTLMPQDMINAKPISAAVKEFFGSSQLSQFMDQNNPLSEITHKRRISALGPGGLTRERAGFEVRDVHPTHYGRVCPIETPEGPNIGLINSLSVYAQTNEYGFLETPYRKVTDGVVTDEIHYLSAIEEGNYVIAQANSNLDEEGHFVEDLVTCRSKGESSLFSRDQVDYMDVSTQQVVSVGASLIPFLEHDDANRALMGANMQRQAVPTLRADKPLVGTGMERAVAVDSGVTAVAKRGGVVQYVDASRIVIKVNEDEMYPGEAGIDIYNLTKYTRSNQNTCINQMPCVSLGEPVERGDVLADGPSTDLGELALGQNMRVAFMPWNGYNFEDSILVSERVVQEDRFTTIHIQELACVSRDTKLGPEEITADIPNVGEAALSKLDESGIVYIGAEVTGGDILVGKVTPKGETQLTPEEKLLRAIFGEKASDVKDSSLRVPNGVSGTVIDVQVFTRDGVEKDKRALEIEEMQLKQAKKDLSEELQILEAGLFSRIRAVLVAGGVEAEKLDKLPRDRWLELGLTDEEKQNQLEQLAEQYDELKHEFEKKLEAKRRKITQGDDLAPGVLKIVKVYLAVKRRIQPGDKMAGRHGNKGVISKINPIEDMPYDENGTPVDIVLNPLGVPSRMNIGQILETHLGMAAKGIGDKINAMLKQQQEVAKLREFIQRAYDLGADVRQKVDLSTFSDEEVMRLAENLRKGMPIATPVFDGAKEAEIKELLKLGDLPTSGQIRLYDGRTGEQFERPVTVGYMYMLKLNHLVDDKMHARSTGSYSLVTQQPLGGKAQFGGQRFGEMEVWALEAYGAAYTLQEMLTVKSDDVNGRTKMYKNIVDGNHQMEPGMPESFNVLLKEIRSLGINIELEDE

B1: CedA (purified recombinant) (natural protein)
chain: MKKPLRQQNRQIISYVPRTEPAPPEHAIKMDSFRDVWMLRGKYVAFVLMGESFLRSPAFTVPESAQRWANQIRQEGEVTE
B1: binds [1]; binds (σ70 (purified)).
